Experimental data published in the supplement of paper PMC10567573.

B1: SFRS1 (parent)
chain: YSPRRSRGSPRYSPRHSRSRSRT
B2: TPD52L2 (parent)
chain: EAEEEELRAELTKVEEEIVTLRQV

Variants of: B1
Assay: protein stability index of a GFP-peptide fusion (GPS, HEK-293T) (PSI 1-6); higher = more stable
Settings: c terminus: native
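Further: lentivirally expressed fusions sorted by FACS into six bins by GFP to DsRed ratio, PSI derived from sequencing read proportions per bin multiplied by bin number.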

Protein stability index of substitutions, site by site:
R22: N 3.46 | T 3.97 | E 4.25 | I 3.8 | L 4.25 | M 3.8 | H 4.14 | S 3.5 | Q 4.06 | D 3.85 | F 3.58 | V 4.05 | C 3.62 | P 4.04 | W 3.32 | Y 3.9 | K 3.77 | G 3.27 | A 2.02
T23: E 4.56 | M 3.33 | I 4.04 | S 3.4 | C 3.5 | K 4.73 | F 4.22 | H 2.64 | L 1.96 | P 4.23 | Q 2.61 | V 3.69 | R 4.22 | D 3.32 | N 3.17 | Y 4.44 | W 3.79
S21: H 3.79 | W 4.19 | Q 3.62 | F 3.95 | L 3.23 | I 3.28 | G 2.67 | T 3.34 | P 4.3 | V 3.49 | Y 4 | K 3.79 | N 3.98 | M 3.94 | R 4.2

Variants of: B2
Assay: as above
Settings: c terminus: a fixed tail appended

Protein stability index: each site, then its substitutions
E6: I 3.62 | V 3.81 | S 3.12 | C 2.51 | A 3.06 | T 3.58 | N 3.15 | L 2.8 | D 2.98 | K 3 | P 4.32 | F 2.68 | G 2.73 | R 3.23 | W 2.62 | Y 3.08 | H 2.91 | Q 3.46 | M 2.08
A2: F 3.45 | G 4.06 | W 2.88 | V 3.3 | T 2.8 | E 4.6 | H 3.23 | R 3.29 | Y 3.1 | P 4.03 | S 3.42 | Q 4.57 | D 4.7 | I 2.67 | C 3.17 | N 4.25 | L 2.93 | K 3.04 | M 2.8
T12: W 2.1 | Q 3.87 | R 3.12 | K 3.75 | N 3.9 | D 4.91 | M 2.65 | F 3.83 | G 4.8 | Y 3.39 | E 4.22 | I 3.51 | C 3.63 | H 3.51 | L 3.08 | A 3.35 | V 4.06 | S 3.75 | P 5.06
E10: R 4.11 | N 4.91 | Y 4.05 | L 2.96 | I 2 | Q 3.98 | G 5.34 | P 5.46 | T 3.21 | M 3.3 | V 2.72 | S 3.49 | H 4.38 | K 4.91 | A 3.05 | D 4.36 | C 4.84 | F 3.64
L11: W 5 | M 3.99 | P 5.64 | H 5.43 | G 5.38 | A 5.8 | N 5.25 | K 5.55 | R 5.22 | F 5.09 | D 5.92 | C 5.5 | Y 5.51 | Q 5.67 | S 5.65 | T 5.33 | I 4.98 | V 5.2 | E 4.83
E1: G 3.02 | I 1.94 | Y 3.35 | C 2.89 | V 3.58 | M 2.53 | W 2.01 | D 3.74 | N 2.5 | T 2.79 | F 2 | R 2.63 | L 2.57 | H 3.07 | S 2.97 | Q 3.76 | P 3.43 | K 3.06 | A 3.63
K13: A 3.96 | Y 4.08 | V 4.33 | H 5.04 | M 4.18 | S 4.54 | D 5.76 | W 4.21 | C 5.11 | R 3.27 | F 4.25 | N 5.26 | G 5.18 | P 5.55 | I 3.5 | T 5.15 | Q 4.55 | L 4.06 | E 5.82
E3: N 3.1 | D 4.29 | R 3.04 | H 3.08 | W 3.43 | V 3.22 | Q 2.73 | C 2.65 | Y 2.86 | F 2.45 | G 3.52 | L 2.76 | S 3.63 | A 3.04 | K 3.18 | M 2.71 | P 2.92 | T 2.83 | I 2.79
E4: V 3.63 | G 3.23 | F 2.79 | Y 2.25 | H 3.21 | D 3.89 | M 3.42 | A 3.77 | R 3.76 | C 2.93 | N 4.34 | T 3.75 | L 3.81 | K 4.13 | P 3.68 | W 2.93 | S 3.41 | Q 4.02 | I 3.73
E5: M 2.48 | N 2.28 | A 2.3 | Y 3.06 | P 4.18 | K 2.75 | G 2.97 | S 2.35 | Q 3.35 | V 1.62 | I 2.98 | C 2.46 | H 2.44 | W 2.42 | R 2.89 | T 2.71 | L 2.64 | D 3.91 | F 2.34
E15: V 2.8 | P 5.04 | T 4.63 | R 4.72 | M 2.91 | C 3.94 | K 5.01 | S 4.39 | Q 4.9 | D 5.55 | W 3.03 | A 4.41 | I 1.81 | N 5.27 | G 5.31 | F 3.61 | L 1.83 | H 5.12
L7: I 5.39 | H 5.2 | D 5.5 | F 5.23 | M 5.21 | Y 5.29 | S 5.58 | P 5.55 | V 5.77 | T 5.39 | A 5.44 | N 5.41 | G 5.14 | K 5.49 | E 5.74 | W 4.92 | R 5.49 | C 4.93 | Q 5.62
V14: P 5.75 | A 4.05 | L 3.82 | S 4.42 | C 3.54 | K 5.72 | Y 5.05 | E 5.67 | W 4.05 | R 5.35 | D 4.74 | T 4.37 | H 5.7 | I 3.57 | F 5.01 | Q 5.59 | M 4.43 | G 3.76 | N 5.33
A9: N 3.79 | H 2.82 | S 4.32 | E 4.34 | M 2.95 | W 2.51 | K 3.68 | R 3.64 | I 2.37 | G 4.9 | Y 3.44 | P 5.11 | V 3.74 | D 3.93 | F 2.4 | C 3.98 | L 2.62 | T 3.67 | Q 4
R8: Q 3.96 | Y 3.41 | A 4.23 | H 3.91 | S 4.79 | N 4.51 | G 4.55 | T 5.17 | P 5.43 | E 4.84 | W 2.59 | D 4.91 | K 4.59 | F 3.66 | C 4.16 | M 3.79 | V 3.97 | I 3.83 | L 3.6
